Columns and labels:
Experiment in all cases: SPR, antibody captured, C2 as analyte;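 also: biacore SPR at 37 °C, anti-C2 mAbs captured via goat anti-human IgG on CM5 chips, double-referenced sensorgrams fit to a 1:1 kinetic or steady-state model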
[1] = target: T1, human complement C2 (wild type) (human, UniProt P06681 21-752)
T1 construct: Full-length human C2 (NP_000054) with C-terminal 8x His tag, secreted from Expi293F cells and purified from the supernatant; also called WT; huC2
T1 sequence: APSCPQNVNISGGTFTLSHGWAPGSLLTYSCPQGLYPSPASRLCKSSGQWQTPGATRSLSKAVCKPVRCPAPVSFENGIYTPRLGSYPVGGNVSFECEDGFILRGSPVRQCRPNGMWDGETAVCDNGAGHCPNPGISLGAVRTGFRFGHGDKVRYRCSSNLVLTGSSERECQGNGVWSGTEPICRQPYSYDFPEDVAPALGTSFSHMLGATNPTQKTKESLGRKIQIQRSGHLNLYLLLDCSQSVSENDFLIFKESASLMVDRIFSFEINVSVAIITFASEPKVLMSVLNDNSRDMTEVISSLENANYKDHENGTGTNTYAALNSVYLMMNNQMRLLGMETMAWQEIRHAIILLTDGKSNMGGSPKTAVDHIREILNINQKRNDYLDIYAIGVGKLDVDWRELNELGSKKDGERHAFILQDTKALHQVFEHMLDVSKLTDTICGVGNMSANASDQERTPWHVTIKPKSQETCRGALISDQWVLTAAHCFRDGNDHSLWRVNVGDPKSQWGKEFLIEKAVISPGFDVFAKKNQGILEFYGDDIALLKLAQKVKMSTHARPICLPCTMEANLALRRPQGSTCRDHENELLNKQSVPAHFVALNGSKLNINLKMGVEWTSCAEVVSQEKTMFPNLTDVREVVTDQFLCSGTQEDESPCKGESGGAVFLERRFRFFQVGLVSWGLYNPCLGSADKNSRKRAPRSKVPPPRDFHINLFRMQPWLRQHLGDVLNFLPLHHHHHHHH

human C2 S713A = target: T2, human C2 S713A (human, UniProt P06681 21-752)
T2 sequence: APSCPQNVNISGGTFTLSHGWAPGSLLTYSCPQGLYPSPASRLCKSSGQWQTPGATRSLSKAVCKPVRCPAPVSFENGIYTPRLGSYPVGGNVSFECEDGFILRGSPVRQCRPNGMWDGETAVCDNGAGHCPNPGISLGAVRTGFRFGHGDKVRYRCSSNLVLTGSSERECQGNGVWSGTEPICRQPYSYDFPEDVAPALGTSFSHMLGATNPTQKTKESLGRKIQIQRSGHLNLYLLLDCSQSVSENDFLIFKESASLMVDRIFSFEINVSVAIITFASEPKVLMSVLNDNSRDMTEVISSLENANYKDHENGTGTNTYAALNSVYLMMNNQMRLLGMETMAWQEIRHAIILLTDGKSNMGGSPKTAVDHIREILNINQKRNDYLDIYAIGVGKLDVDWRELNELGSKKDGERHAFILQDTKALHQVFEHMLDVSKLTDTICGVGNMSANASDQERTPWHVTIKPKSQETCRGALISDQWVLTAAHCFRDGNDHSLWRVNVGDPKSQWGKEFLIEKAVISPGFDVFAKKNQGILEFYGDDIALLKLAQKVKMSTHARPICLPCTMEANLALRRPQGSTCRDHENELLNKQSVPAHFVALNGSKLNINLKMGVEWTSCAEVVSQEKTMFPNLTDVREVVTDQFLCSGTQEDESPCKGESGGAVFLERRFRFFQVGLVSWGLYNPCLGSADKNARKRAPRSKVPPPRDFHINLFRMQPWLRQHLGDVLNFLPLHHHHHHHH

human C2 A717S = target: T3, human C2 A717S (human, UniProt P06681 21-752)
T3 sequence: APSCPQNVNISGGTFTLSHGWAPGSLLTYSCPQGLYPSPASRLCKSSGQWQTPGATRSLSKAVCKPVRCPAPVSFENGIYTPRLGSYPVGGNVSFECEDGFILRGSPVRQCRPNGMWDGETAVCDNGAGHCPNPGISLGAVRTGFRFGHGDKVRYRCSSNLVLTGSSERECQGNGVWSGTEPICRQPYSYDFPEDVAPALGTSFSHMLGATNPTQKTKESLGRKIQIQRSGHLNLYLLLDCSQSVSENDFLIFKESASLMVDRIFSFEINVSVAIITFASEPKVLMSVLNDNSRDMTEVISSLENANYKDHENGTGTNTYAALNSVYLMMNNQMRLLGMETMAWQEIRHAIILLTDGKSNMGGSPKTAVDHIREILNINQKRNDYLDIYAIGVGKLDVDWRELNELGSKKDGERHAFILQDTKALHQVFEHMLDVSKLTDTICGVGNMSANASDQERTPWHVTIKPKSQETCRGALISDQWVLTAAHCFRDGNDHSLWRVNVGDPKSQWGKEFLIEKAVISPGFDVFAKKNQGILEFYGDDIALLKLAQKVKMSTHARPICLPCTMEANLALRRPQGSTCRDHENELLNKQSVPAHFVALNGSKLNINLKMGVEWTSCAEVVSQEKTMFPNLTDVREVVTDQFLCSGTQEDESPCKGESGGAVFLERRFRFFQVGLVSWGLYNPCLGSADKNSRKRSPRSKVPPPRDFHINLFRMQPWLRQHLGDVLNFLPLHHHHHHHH

B1: RF16-226 (antibody, human IgG4 S228P, lambda)
heavy: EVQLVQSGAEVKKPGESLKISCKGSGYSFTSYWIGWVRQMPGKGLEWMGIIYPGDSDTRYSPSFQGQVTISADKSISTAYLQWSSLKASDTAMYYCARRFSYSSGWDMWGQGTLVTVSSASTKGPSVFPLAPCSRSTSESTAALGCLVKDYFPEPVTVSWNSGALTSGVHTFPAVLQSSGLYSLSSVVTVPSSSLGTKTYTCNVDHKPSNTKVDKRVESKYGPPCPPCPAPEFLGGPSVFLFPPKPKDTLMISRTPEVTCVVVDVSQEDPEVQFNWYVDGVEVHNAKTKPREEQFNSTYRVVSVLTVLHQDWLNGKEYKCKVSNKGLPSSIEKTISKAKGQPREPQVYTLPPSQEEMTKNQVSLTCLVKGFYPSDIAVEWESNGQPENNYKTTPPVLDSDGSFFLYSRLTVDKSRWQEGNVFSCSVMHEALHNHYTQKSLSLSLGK
light: SYELTQPPSVSVSPGQTARITCSGDALTSKYVAWYQQKSGLAPLLVIYEDTRRPSGIPAKFSGSSSGSVATLTISGAHGDDEADYYCYSTDASGHQRVFGGGTKLTVLSQPKAAPSVTLFPPSSEELQANKATLVCLISDFYPGAVTVAWKADGSPVKAGVETTKPSKQSNNKYAASSYLSLTPEQWKSHRSYSCQVTHEGSTVEKTVAPTECS
notes: pH-dependent anti-C2 antibody from a phage display library; also called WT
Kd [1]: 10.1 nM
Kd (human C2 S713A): 19 nM
Kd (human C2 A717S): 406 nM

From patent US20220332804A1 (CSL INNOVATION, published 2022)
